In a protein production outcome set (Wang et al. 2014):

Test: label from the status in PepcDB records
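Also: failed if final PepcDB status was selected cloned or expressed and not failed if soluble or beyond.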

Sequence | protein production
MPTKKMTRAQTCPHQTTVISNLKIIPLTLGWLLKSALLIIIIAVFIPLSPKMPAPGLDASWAVGLNQAVAQGLAFGKDIFFTLGPYSSIYTKFYHPATDFMMVGGSLYLALCYWIAIILLMQGIKWRWSIAFAILLFSMIYARDSLFFSYSLIIGLLIHKEISGKETSFKSNFCTLFALLFTPFGLFPLIKGSLLILSIITVLLCSLFLILYKQRNLAVLCLASPVVSILFFWIASGQSIFNLPAYVSNTILLASGFTEAMAIEGDNKELIFFGVTSSCILLSILLQKQLSPLSKAFLFCIYLVFLFLSYKTGFTRHFGHAFIAGTSVLLASFLLPYFNSNNKVIVPLLALSLYTASYINGHYTKISVRDNFISTYTAAYYGLKNRIQNKNWLKENFSLTMNYLKARDDFPRLPGTTDIYSYNQTSLIASGMTWSPRPIFQSYSVFTAKMAEINTNYLLSENKPDNILFKVEPIDNRIPSMEDGMSWPILINHYQPVRLENDFLFLRKKLVNKPVTSLVPLKTEIHTFGEQVKIPDTDKSLFVEIDIQPTLWGMLATTFFKPHQLEANLELKNGTQRQYRLISNMAKSGFLLSPFIENSAEFGLLFSQNNYLAGKKVISFSINSKQVPSSHWQTKYTIHYKTFASNN | failed
MNQFGPSALINLSNFSSIKPEPASTPPQGSMANSTAVVKIPGTPGAGGRLSPENNQVLTKKKLQDLVREVDPNEQLDEDVEEMLLQIADDFIESVVTAACQLARHRKSSTLEVKDVQLHLERQWNMWIPGFGSEEIRPYKKACTTEAHKQRMALIRKTTKK | failed
MPEITLKVDSAYPEDQGNGKARLDPSAMQALNVSPGDLVRITGKTSTVAKVWRSFESDWNMEKIRIDKYTRANASVNPGDRVTVEKVEEEIPATSVTLVSPSEISAAFPDEEDDYLISLINFPVSLDDIIPIKTFHPGPPLEFKVSAIEPENACILNKMTELVFNDDDEFDGTKAITYEDIGGLKGELKRVREMIELPIRHPELFETMGIEPPKGVLLYGPPGTGKTLIAKAVANESGAHFISIAGPEIISKYYGESEQKLREIFEEAEEEAPSIIFIDELDSIAPKREDVNGEVERRVVAQLLTMLDGITDRGQVIVIGATNRPDAIDPALRRPGRFDREIEIGVPAEADRMEILQIHTKDMPFEGMAKLKELRSSEPSETVLEKALADYEASRDKLLWMLASQAKGFVGADLAALAREAAIRALRRQIDVADIDNEKIPEEVLRKLEVTTSDFILASREVAPSAMREIALETADVSWTDIGGSRDAVRDVRESVEFPLTRKEVFAQLGIRPPKGVLLYGPPGTGKTMIAKAVAHESGANFIAVKGPELLSKWVGESEKAVRDIFKKARQVAPAIIFFDELDSLTPSRGASDGSRTTENVLNQILTEMDGIEELNDVMILAASNRPDIIDPALLRSGRFDRLVYISEPEEADRKEILAVHMQNMPIEGSSFDEAVKEVSGLNEASLESLGAKFSGKSVTIKQIKTAAGKYTKGTPLSLIEERRRLAAVLRQHAVTLSDPEKTKLIRQLAEDTAGYVGSDLEGLCREAAMHALRNQANVVTADDFAEARKKIHPTMNERVREYYISISQRFKGGLPKEAQNLIEYQ | failed
MVRVCACLIVKNEAAHLARCLGSVQPWVDDIVVVDTGSTDETPAIARQFTERLFTFPWQDDFAAARNYSLEQATGDWILVIDADEVLVTLQEPPVPLGQQLAGSPFTAYQLLRREIGTGEQFSDFAIVRLFRNLPTLRYQGRFHEQLVSTAAAPLTIGTLETLRIDHYGYQPAQIQAKMRDRNIPILERIRASEGLPLHLLFALADMYQAVNNPVEAENCYQELFDRLLPHLLSGQLPENAPGALPEILNQLGRRLLATGDHDTLQLLCQQGLAWFPTYPPLNDLAGRWLMTLGFPLGATAYFEYCLELGRTNGYSKQMIFPLGYVREIAAEQLGRAYEALGDRERAAAAFAQAAALRQGKAHPQLEHHHHHH | not failed
SQIYASDGETELARIVPPEGNRQMVTIDQVPDTVKNAVVAAEDREFYTNPGFSITGYARAALGVITGDSSAGGGSTITQQYVKKAVVGDERSLIRKAKELVYSAKMANEWSKDEVLEAYLNTVYFGRNAYGVQAAAHAFFDKPVEELTAAEGAVLAASIQLPSQLDPWTNP | failed
MRDITAQGSNVEEAIQNALATLETTRDKVEVEVLDEGKKGIFGIGSRLAMVKVIEKEDGIQVAIDYLLDVATKMGAVITIDVEEVGKDVKLQIKGESLGMLIGKHGQTLNALQYLTQLIANKTTSQYKNIIVNVGDYRERRHETLVLLANKMADKALKTKRAVHLEPMPSFERKIIHAILSENEQIETHSEGRDPYRYIVIKPVKK | failed
MFDLSSIVDNEQTSDALEDVVMGLIINAGQARSLAYNALKQAKAGDFAQADELMAQSRSALNDAHLVQTQLIEADQGEGKTKVTLVLVHAQDHLMNAMLARELITELIELHQKIQ | failed
MNSEVDTLFAQAYKLQYEGHLPQAISLYEQILAQSPKHTETLHFLGLTYAQLGDMENAILYFLQARKINPNDVGILNNLANAYKKAGQLDEAIKYYQQAIEIKPEYVQAHNNLAATYALLNNYQKALHHYVIAVNTEPDFSAAHFNLGLLLLKNQQLSAAKTQFNNVIALNPQHREAQFYLGILHLEDNLLSEAEQAFHKVLEQDHEHVQSLINLGVIALKREQNQLAVDYFTKALALDNEDIDARNNLAATFMHHDRFENALMHYDVLLKKEPDNLEYLYNSGVAQMALGHLNEATLLFDQILTLQSDHTPSLNNLAAIYLKMDMRETAREYLERALAINPDDVISRHMLNAITGATSVNTTEKYAQNLFNNYALYYDQHMQGELHYKIPHHIGRLIHQLQLLQTSHSLDLGCGTGLTGIVLREISKHLTGVDIAEKMIARAKEKNIYDLLVCSELIDFLRKDKNDYDLAVAADVLPYFGNLDDIFNSINQHLKQEGYFIFTTEISTTTPWKLESSARFSHQPEYIESLINKYQFHLIKQEKIPGRTQNKQVLEVMLYCIQKSTSCFVSN | failed
QNYWAVFDANKETLIVQTCSGLGLTAIDHLYPPHILPLDTDNETLGTTVLQALANSRTFVYDSPEDQDFFDTEKIRQRYEDWVAKLCGNLGYKTRRALFKNMMSVDIWLHNGCLKISPSRHVKLEAWNAIDADDVILSLDNSPEEIGAGLKLALSHC | failed
MSLSMRDPVIPGTSMAYHPFLPHRAPDFAMSAVLGHQPPFFPALTLPPNGAAALSLPGALAKPIMDQLVGAAETGIPFSSLGPQAHLRPLKTMEPEEEVEDDPKVHLEAKELWDQFHKRGTEMVITKSGRRMFPPFKVRCSGLDKKAKYILLMDIIAADDCRYKFHNSRWMVAGKADPEMPKRMYIHPDSPATGEQWMSKVVTFHKLKLTNNISDKHGFTLAFPSDHATWQGNYSFGTQTILNSMHKYQPRFHIVRANDILKLPYSTFRTYLFPETEFIAVTAYQNDKITQLKIDNNPFAKGFRDTGNGRREKRKQLTLQSMRVFDERHKKENGTSDESSSEQAAFNCFAQASSPAASTVGTSNLKDLCPSEGESDAEAESKEEHGPEACDAAKISTTTSEEPCRDKGSPAVKAHLFAAERPRDSGRLDKASPDSRHSPATISSSTRGLGAEERRSPVREGTAPAKVEEARALPGKEAFAPLTVQTDAAAAHLAQGPLPGLGFAPGLAGQQFFNGHPLFLHPSQFAMGGAFSSMAAAGMGPLLATVSGASTGVSGLDSTAMASAAAAQGLSGASAATLPFHLQQHVLASQGLAMSPFGSLFPYPYTYMAAAAAASSAAASSSVHRHPFLNLNTMRPRLRYSPYSIPVPVPDGSSLLTTALPSMAAAAGPLDGKVAALAASPASVAVDSGSELNSRSSTLSSSSMSLSPKLCAEKEAATSELQSIQRLVSGLEAKPDRSRSASP | failed
MTDKTPWSLRSVGNPSPIEIAMMLLSLLSVIIVLVMTFGRLDKETYRLLFFIDTTICMIFMVNFFAGLFRARDKLFYLRHHWIDFIASIPAIEALRIARVFQILRVIRLIRMSRSFLIPLIKQRKQATLASLLVAMVTILTFASIIILIIESGTEGANIQTAEQAIWWALVTISTVGYGDFYPVSTAGHIVGGIVIVSGVSFFGVISGYMASVFVAPDESERQERQDAHKAEIKSELELALARMEENQRQMELNQAQMLTKIAELKQALEDKKG | failed
MVLLIVDGIIVAISAIAFSPDTVMYSILSLYVVSLTIDKMMVGLNSSRNLLIISQKSDQILNYITNGADRGATKIPVLGGHTGHSQNMIMTTLSTHEVPKVQEEIQKIDETAFIVIIPASTVMGRGFSLQKDYKSVPNDFINPL | failed
MSSLMIKLNLNYKLITKKTLPKLFYWGLGIVFFFLAPTTNAGSLSPYTTKELEQLEREFIQLINQSDSVERNPLASQYINSIGKKLAHYGRIKTPYFFIVKSKEINAFAGPGGYIGINTQLILTSSNESELAAVMAHEIAHVRLHHLYSIIEHQKQMRVPLLASILASAALGVLNPTVGMGAMMASVSGFSQDNINFTRSKEKEADRIGIDMLIKAGFNPQGMAAFFNKMQENSRYYYTANIPAILRTHPLDADRIAEAENRTSRLPKKHYTDSLDYALFKELIRVSVASNNKQILDYYEHHCHKKNPATACQYGYVLALLNNNNFQKAAEKLNPLLLQDNSNLNFQIAMAQAELGLSQYQSALSRLAELQNNFPDNYAALMAYAQGLLTANQPQKATAVLLKGSRQYKEDLPLCRELARAQAESHQKSYAYFTQAQCLLLEGQKRGAIAQLKVAQKLAKRDAYLSARISAKIDEIKFMVENLEHHHHHH | failed
MWLGYMNKSIPTTRKTRTFKAMSIEFSAPAKMKIEVWSDIMCPFCYIGKKRLDDALSTFDQAGRIEVEYKSFELMPGLETHPLRSDVEYLADAKGMSLEQARQMNGQVQAMAQATGLEMNPDETIAANTINAHRLTHFAKAHGKQQEVAQELFKAHFVDGKNVDDLDVLVSIAAEVGLDASAAREALESDVYTNEVQQDVHEARQLGVQGVPFFVFDRKYAINGAQQEEVFTGTVEKAFEEWAAENPVSPFEVIDGQSCSVDGTCN | not failed
MTMLLDGGPQFPGLGVGSFGAPRHHEMPNREPAGMGLNPFGDSTHAAAAAAAAAAFKLSPAAAHDLSSGQSSAFTPQGSGYANALGHHHHHHHHHHHTSQVPSYGGAASAAFNSTREFLFRQRSSGLSEAASGGGQHGLFAGSASSLHAPAGIPEPPSYLLFPGLHEQGAGHPSPTGHVDNNQVHLGLRGELFGRADPYRPVASPRTDPYAAGAQFPNYSPMNMNMGVNVAAHHGPGAFFRYMRQPIKQELSCKWIDEAQLSRPKKSCDRTFSTMHELVTHVTMEHVGGPEQNNHVCYWEECPREGKSFKAKYKLVNHIRVHTGEKPFPCPFPGCGKIFARSENLKIHKRTHTGEKPFKCEFEGCDRRFANSSDRKKHMHVHTSDKPYICKVCDKSYTHPSSLRKHMKVHESQGSDSSPAASSGYESSTPPAIASANSKDTTKTPSAVQTSTSHNPGLPPNFNEWYV | not failed
MGVLRVGLCPGLTEEMIQLLRSHRIKTVVDLVSADLEEVAQKCGLSYKALVALRRVLLAQFSAFPVNGADLYEELKTSTAILSTGIGSLDKLLDAGLYTGEVTEIVGGPGSGKTQVCLCMAANVAHGLQQNVLYVDSNGGLTASRLLQLLQAKTQDEEEQAEALRRIQVVHAFDIFQMLDVLQELRGTVAQQVTGSSGTVKVVVVDSVTAVVSPLLGGQQREGLALMMQLARELKTLARDLGMAVVVTNHITRDRDSGRLKPALGRSWSFVPSTRILLDTIEGAGASGGRRMACLAKSSRQPTGFQEMVDIGTWGTSEQSATLQGDQT | failed
MIEENYKEERYTERVNQGGVWGSFKRKFLSWADDDAGYDEEKDYENLLNNEKLQKKLREWRRTKNQQNNNKTFNTNDTNSFETIQSVIAEQLNVDAVQVTPEAEFVKDLGADSDVVELIMALEEKFGIEIPDEQAEKIVNVGDVMRYIEKQLI | failed
MNMLIDISTEILMSLLFFYLFYRIMVKGTNGVIEILVEAMMFSMFVGLILYFQTRITFTTASMAVDMPMAIMGGAVAWAYFTRNSSMTTSRKSAFISLLISNEVAMAYFLTIITYPNIISHGVFYTLVHSVSSYLFIASMEIEMILSLLFLEKDSIKKIVFSGVVFSGLFNPFFMPQSNFSLYGTIYFTAVMVFFMAILFEIIAVKFDTMNFGKIVMITLFFGLMGFSAAGLFASIVFGSLITLLLFDISMMAQMAFYFYFLFRNTEIRGRPGWSYNRYSMFYVLLFSFAAEWLASASIISVVNGVNGVVPFLSNFGVGVYSGIVPAILNAIFIFGSVTNSYVFLIIMGVEMASLVIVRIGRLRWKEKNGISHSP | failed
